The target in assay [1] is influenza matrix peptide-HLA-A2 complex (biotinylated) (influenza virus). Briefly: SPR (BIAcore 3000), sTCR-specific response over repeated injections after compound mixtures. In general terms: Surface plasmon resonance follows binding to a sensor surface in real time, without labels.
Assay [2] relates to MHC/peptide complex. The settings on record: cited from earlier work.
For assay [3], the target named is HLA-A2 (prepared as described in Example A1 and tagged with a biotin molecule). Briefly: SPR (BIAcore 3000), sCD8αα-specific response as a percentage of the initial response.
In assay [4] the target is B7. The settings on record: read-out: Kd of CD28-B7 interaction; cited from earlier work.
Assay [5] deals with tax 11-19 peptide-HLA-A2 complex (biotinylated). Nature of the assay: SPR (BIAcore 3000), sTCR-specific response over repeated injections after compound mixtures.
For assay [6], the system named is class I MHC-restricted T cells. The note with it: cited from earlier work.

As to JM22 soluble T cell receptor (TCR), in assay [1], the loss of signal after 10 mixtures was determined as 10.2% and the loss of signal over the run came out at 9.3%.

Regarding “CD8: T cell coreceptor binding class I MHC/peptide complex”, the “off rate from an MHC/peptide complex” value in assay [2] is “approximately 10 s^−1”. For the same substance, in assay [2] (read-out: Kd of interaction with MHC/peptide complex), the Kd was about 500 µM.

As to “recombinant soluble form of CD8 (sCD8αα) (from UniProt P01732 22-141) (receptor)”, the loss of signal over the run in assay [3] was found to be 3.6%. Take “CD28: receptor with low affinity interaction with B7”: in assay [4], the Kd was about 4 µM. For the substance A6 soluble T cell receptor (TCR), the loss of signal over the run in assay [5] came to 33%.

As for “soluble, recombinant CD8: soluble, recombinant CD8 derived from the human coreceptor”, the “inhibition of class I MHC-restricted T cells responses” value in assay [6] was “potent inhibitor”.

Source of the values: patent publication US20030104635A1, “Screening methods” (AVIDEX LIMITED, priority 1999, published 2003).
